For five substances, Kd, decrease of binding affinity against wild type and stoichiometry N (BCL7A per NCP) results are on record in paper doi:10.1101/2023.03.17.532992.

The term Kd denotes the constant that tells how readily two partners part at equilibrium.

Experiment [1] concerns the target nucleosome core particle (recombinant X. laevis histone octamer on 601 positioning DNA) (X. laevis). In words: native gel or EMSA. (In general: Mobility shift assays separate free from complexed probe on a gel.)
Experiment [2] has the same target. Briefly: SEC-MALS. In general terms: Size exclusion chromatography separates by hydrodynamic size, large species first.
The target is the same in experiment [3]. In words: MST.
Experiment [4] shares this target. In words: AUC.

In the case of “BCL7A (1-100) truncation mutant (from UniProt Q4VC05-2 1-100) (domain or fragment)”, in experiment [1], the equilibrium dissociation constant (Kd) is 437 nM.

In the case of “BCL7A P78S mutant protein (from UniProt Q4VC05-2 1-231) (natural protein)”, in experiment [1], the decrease of binding affinity against wild type turned out to be 50%.

As to “BCL7A R11S mutant protein (from UniProt Q4VC05-2 1-231) (natural protein)”, the decrease of binding affinity against wild type in experiment [1] was found to be 50%.

For “BCL7A, full length human (isoform Q4VC05-2, 231 amino acids) (from UniProt Q4VC05-2 1-231) (natural protein)”, the stoichiometry N (BCL7A per NCP) in experiment [2] and in experiment [4] was 1 throughout. The Kd in experiment [3] was found to be 230 nM; in experiment [1], 218 nM.

As for “BCL7C, full length (from UniProt Q8WUZ0 1-217) (natural protein)”, the Kd in experiment [1] turned out to be 124 nM.
